Test results taken from publication PMC2742444.

Assays:
VAV2 = VAV2 (UniProt P52735); assay: anti-FLAG IP, SRM mass spectrometry; settings: reference: wild type, no EGF
SOS1 = SOS1 (UniProt Q07889); assay: anti-FLAG IP, SRM mass spectrometry; settings: reference: wild type, no EGF

## EGFR (chimeric EGFR-FLAG-GFP) (from UniProt P00533) wild type, EGF 15 min
VAV2
  fold change: 1.4 fold
SOS1
  fold change: 1.91 fold
